Paper PMC2712976 (The Journal of General Physiology, 2009)

Experiments:
[1] = target: F-actin (UniProt P68135); assay: co-sedimentation
[2] = target: the molecule itself; assay: gel electrophoresis
[3] = target: CFP-SERCA1a (UniProt O14983-2 1-994); assay: FRET or BRET

Molecule “first four N-terminal domains (C0-C1-motif-C2) of cardiac myosin binding protein C (domain or fragment)” has a Kd [1] of 10 µM and a stoichiometry N [1] of 1 molar ratio.

B1: WT phospholamban (in vitro sample) (natural protein)
chain: MEKVQYLTRSAIRRASTIEMPQQARQKLQNLFINFCLILICLLLICIIVMLL
With B1 the “stoichiometry N” value [2] was 5.

B2: YFP-PLB (natural protein)
chain: B1 chain
In the case of B2, the “fold higher apparent affinity relative to SERCA2a” value [3] is reported as 2.6 fold.
